# Laboratory results from the DeepSol protein solubility set.
# Experiment: soluble on expression in E. coli; label from the status in PepcDB or PDB records
row,Sequence,soluble on expression in E. coli
1,MAIKNAFYAQSGGVTAVINASAAGLLETARAHSDKIGKVYAGRNGIIGALTEDLIDTSAESTEAIRALRHTPSGAFGSCRYKLKSLEDNRREYERLIEVFKAHDIGYFFYNGGGDSADTCLKVSQLAGTLGYPIQAIHVPKTVDNDLPITDCCPGFGSVAKYIAVSMLEASFDVASMAKTSTKVFILEVMGRHAGWIAAAGGLASNEDHEVPIIILFPEVTFDQEKFLAKTDHYVKEYGYCTVVVSEGVKGTDGKFLSDQGLRDAFGHAQLGGVAPVIANIVKNGLGLKYHWGVADYLQRAARHIASGTDVEQAYAMGKAAVEYAIAGHNSVMPTIERISSSPYAWKTGMVELSKVANVEKMMPADFISEDGFGITGKCREYLSPLIEGEDYPPYKNGLPDYVRLKNVAVTKKLAEFKILEHHHHHH,not soluble
2,MEILNQFSQFSPNMEAQGASSIPQPSQDAHEKARQQAENQETAKNGMISQILDQAAMQRLSNLAVAKPEKAQMVEAALINMARRGQLSGKMTDDGLKALMERVSAQTQKATSVKFDRRRNELDSDEELDL,not soluble
3,MDYGMYFFEHVTPYETLVRRMERVIASGKTPFQDYFLFESKGFGKVLILDKDVQSTERDEYIYHETLVHPAMLTHPEPKRVLIVGGGEGATLREVLKHPTVEKAVMVDIDGELVEVAKRHMPEWHQGAFDDPRAVLVIDDARAYLERTEERYDVVIIDLTDPVGEDNPARLLYTVEFYRLVKAHLNPGGVMGMQAGMILLTHHRVHPVVHRTVREAFRYVRSYKNHIPGFFLNFGFLLASDAFDPAAFSEGVIEARIRERNLALRHLTAPYLEAMFVLPKDLLEALEKETMVSTDQNPFYVTPEGEARQAPYKG,soluble
4,MAYQSKNTDEHVTFADALLSKRYRKAQNDFLNQVERLIDWRPIRTLINKKYTKRQNAIGAPAYDVILLFKMLLLETWYNLSDCALEERINDSITFSRFLGLKMEEVSPDHSTISRFRSALTELGLMDKLLAQFNKQLSRHHISVREGVLVDASLVETPHKPNGTITIEVADDREDNRSEAEKEAEEDYQKQVVRRRKGTDEEARWVYKQKRYHYGYKKHCLTNVQGIVQKVITTAANRSDTKEFIPLLQGANIPQGTAVLADKGYACGENRSYLQTHHLQDGIMHKAQRNRALTEEEKQGNKAISPIRSTIERTFGSIRRWFHGGRCRYRGLAKTHTQNILESIAFNLYRTPGIIMSSSLG,not soluble
5,MKRIGVLTSGGDSPGMNAAIRSVVRKAIYHGVEVYGVYHGYAGLIAGNIKKLEVGDVGDIIHRGGTILYTARCPEFKTEEGQKKGIEQLKKHGIEGLVVIGGDGSYQGAKKLTEHGFPCVGVPGTIDNDIPGTDFTIGFDTALNTVIDAIDKIRDTATSHERTWVIEVMGRHAGDIALYSGLAGGAETILIPEADYDMNDVIARLKRGHERGKKHSIIIVAEGVGSGVDFGRQIQEATGFETRVTVLGHVQRGGSPTAFDRVLASRLGARAVELLLEGKGGRCVGIQNNQLVDHDIAEALANKHTIDQRMYALSKELSI,soluble
6,MAHHHHHHMRQGRVRTESTVQRFAKTPIGEGFDLWDRDYLLGAMRLFLFKAETAPPFQVGPCMDATGEILVQLEELEDAREQFSIAAEKYLITQQQQLAKIMEIKALECERGPQAALEELTAFLKKETASTNATAVPAPITRAYAYQAELLLKTATPETPELFTEAVETAKLACNHAWDRVHMGYVVLGDALKASGCPDEARKAYSEAFETNRNCITALERHIEVLKEYIAESNDDMRIEALRKELLPLLESAISLHPRPTLIREKAFLLSETLGDAAALEFLDPLICNPPPEEADAAGNVGGRTVATLLKAKAAILADGGKMQEALEVAEAALKESPSDEEAKAIVAELRESL,soluble
7,MAHHHHHHMAPLKTQAPSNRSLLGYPLRRAAAMEMLYGGICIQHLAQPPFPLRTIQSESLPPPSLQGERDDLELEVKDSTGNVMGYRLFPVNIGIRARTESVRVRSEDCYKRFLAQKHCAAAGVPLQFPAPSSITNSNCLATPRAASHFHPPSSSLSLFTRPADSQGGDVGRTTPADVAAYHPRAWRPYQMLKPMPHNWGPAVRSSGVRGPHMQLLQERIDKKGFGWKRKSRSLWQQDISTAGFRPKRYF,not soluble
8,MAIVLLVLHVCTGLRGSPVSGRVRMAVDSGIYLAPCSNNDAQEHLKRTVINGVDRDDYGQYTNVGFGDSVSIWGVKGGNESHWQDIDAGDYLFFYTGDETYSQVAEVLATDQNEGLAEHLWPGFEDTWEFIIYLNEPIPVNIDSNEIADYAGYKQNYILGFQSLRGSAVDEINDEYGSIEGYINANRTDGNHIQTSGGSQDPDEGDDSVVDEVLDEADRDEEAYANIARQLEEVGQVVFYGPPGTGKTYNAQQFARWWLHNLQSEPRESQVRSVTFHPSYTYEDFIEGLTANATENSVSYDIKPGKFKAICEDARVAYQETGPNEEPPRYVLLIDEINRGNLAQIFGETITLLEEDKRGTLHVDLAHSGGSFTIPPNLYVIGTMNTADRSVALVDAALRRRFRFIDFPPDYGVARSRFGFDTEYDLTSAARGERSDLEQLQALSIQAVEQLNETIIELPDLGKGKQIGHSYLLVDPDDEQALVDAWRYEILPLLEEYFYGQLSRIRQELFNQNGDSLVDWEREQIKDFDPETLRESLQAIVNAGLEHHHHHH,not soluble
9,AMEDELKILIGKMRYRSSFGQNALQHSKEVALLAGLIAEQLGGDKKLARRAGILHDIGKALTQELGRDHVNLGVEVCKRHKEDPVVINAIYAHHGHEEILSVECASVCAADALSAGRPGARRKSDEEYAKRMQALEEIALEFDGVEKAYAMESGRELRVIVKSNQ,not soluble
10,MGSDKIHHHHHHMIHRQTNQLNTDNLEKKQRQYKYAFNLAEIDSESFPMHIFRKYAKDVFEDHQLSLLQRGERQGEYILRQQISHYLFNSRGVTCHPNQIIVGSSTSQLLDMITNLLKKEEFIIEQPSYPPIKHTLDKKGISYIQVPVEQNGIQIDPILNTNNNILYITPSHQFPTGYVTNLKKRTQLINWSHQAKQRYIIEDDYDSEFRYFGKPIPALQSLDTKGKVIYISTFSKSLYPSCRIAYIVLPQNLMHKYNNQKYKEGNTVPVHVQHMIAQFMISGKFERHLNKMRKIYRDKLDYILKRLKPYNTQIKIEGALTGMHFTITVNNGLSMKQCLKNAKKNNLKLKPYHYENYSKVYPKFILGFGGIKKEELEDHVNALIHSLVI,not soluble
11,MKKMLLATALALLITGCAQQTFTVQNKQTAVAPKETITHHFFVSGIGQKKTVDAAKICGGAENVVKTETQQTFVNGLLGFITLGIYTPLEARVYCSK,soluble
12,MHSMKLLVTGGMGFIGSNFIRYILEKHPDWEVINIDKLGYGSNPANLKDLEDDPRYTFVKGDVADYELVKELVRKVDGVVHLAAESHVDRSISSPEIFLHSNVIGTYTLLESIRRENPEVRFVHVSTDEVYGDILKGSFTENDRLMPSSPYSATKAASDMLVLGWTRTYNLNASITRCTNNYGPYQFPEKLIPKTIIRASLGLKIPIYGTGKNVRDWLYVEDHVRAIELVLLKGESREIYNISAGEEKTNLEVVKIILRLMGKGEELIELVEDRPGHDLRYSLDSWKITRDLKWRPKYTFDEGIKKTIDWYLKNEWWWKPLVDERILHPTPWKLKW,soluble
13,MSLQADEQSNGKIKFSKFKVNIKNKDNKSNWTDMGTLVVEKVEYGIATGLNNDKQGGGHSSTFFSLEEEEVNNFVKAMTEGGSFKTSLYYGYKYEQSDEKGIQNKEIITKIEDINCSKHITFSGDKIAKNEGHHHHHH,not soluble
14,MIITIARQCGCGGHEVARILANKLGMELFDKKKLLEEANQLGQAEEHSNFFNEVPINSLLYGIAMGFGNTKPMDKSLKLVKAITENKDAIIIGRCANIIYKDSKDVTSVYLFADKEFRIKYLMERDGISEKEAEKYIKEVDEKRTSFHKYCTDTVWGDAKEYQLCLDTGKIGFEKTAELIMNYINAKKES,not soluble
15,MAQGEKITVSNGVLNVPNNPIIPFIEGDGTGPDIWNAASKVLEAAVEKAYKGEKKITWKEVYAGEKAYNKTGEWLPAETLDVIREYFIAIKGPLTTPVGGGIRSLNVALRQELDLFVCLRPVRYFTGVPSPVKRPEDTDMVIFRENTEDIYAGIEYAKGSEEVQKLISFLQNELNVNKIRFPETSGIGIKPVSEEGTSRLVRAAIDYAIEHGRKSVTLVHKGNIMKFTEGAFKNWGYELAEKEYGDKVFTWAQYDRIAEEQGKDAANKAQSEAEAAGKIIIKDSIADIFLQQILTRPNEFDVVATMNLNGDYISDALAAQVGGIGIAPGANINYETGHAIFEATHGTAPKYAGLDKVNPSSVILSGVLLLEHLGWNEAADLVIKSMEKTIASKVVTYDFARLMDGATEVKCSEFGEELIKNMD,soluble
16,MKVDRPSRSPFPQRIPQKFWKKINDENWIDVFDCKKIKERKQEFFWYKLDPLDLAKAVAMASQMNDRGVIPYPTPTLNDALNDHAALIRALNDSSIKKLFKEVRFFCTMRKRFSTIRNNPISVKREPTNF,soluble
17,INLSTLPEHLTYLVRSSRVLQELHESEAQNRALLNAIPDMMLHVCREGTILDFRAGNGCAYAAFGGNLRGRTIADLLPPGAAAQFMAQVGHALATGTMMVCEYELEGPGGLNTHEARIVANG,not soluble
18,MTSGQFKPVPQILMELPPAEQQRLFNEAAAIIRHLEWTDAVQLTALVMGSEALQQQLLAMLVNYVTKELRAEIQYDD,soluble
19,VDNDKLKDGYVNFINILNLDDMYVKKMREWRNQDFVRQRMFNREIITEEEHARFIEHLKDNREKNYYVCFLGNKPFGVLYYEFFRKNNNLEFGYYLTEQEFINSGLGIVMEYSLLNHAFYDLKVNKVFCRTLSSNEKVVSLHMNFGFETEGILRQHVRINDGYEDITIQAINERAWAQNRPKIEKYLRVIVDVDKIGPITGRS,soluble
20,MPYRRRQSTAPKSGAPKSVRSAAAGQSLDIDGIHLHLTRKPIKNLYLRIKPPSGRVEISAPMRMSESRIADFVKERHSWILAQQQRMAEAQRRSIMALNEGAGFENGGRGVAGASGHDGGVAGRPKTGDISRPGIGDAGPGQAGTNVQPYFDRSQIWTDERKRQAAAAINAALPQLLAKWGPVVGRQPTHITLRVMTSRWGSCTPRTGRIRLNLQLGLMEPQFLEYVLVHEMTHLWESGHGAGFQRRMTAYLPGWKTLRRDLNRRVVLLEHHHHHH,soluble
21,MFLINGHKQESLAVSDRATQFGDGCFTTARVIDGKVSLLSAHIQRLQDACQRLMISCDFWPQLEQEMKTLAAEQQNGVLKVVISRGSGGRGYSTLNSGPATRILSVTAYPAHYDRLRNEGITLALSPVRLGRNPHLAGIKHLNRLEQVLIRSHLEQTNADEALVLDSEGWVTECCAANLFWRKGNVVYTPRLDQAGVNGIMRQFCIRLLAQSSYQLVEVQASLEESLQADEMVICNALMPVMPVCACGDVSFSSATLYEYLAPLCERPN,soluble
22,MCESKIDRNRIWIVGTNATYPPFEYVDAQGEVVGFDIDLAKAISEKLGKQLEVREFAFDALILNLKKHRIDAILAGMSITPSRQKEIALLPYYGDEVQELMVVSKRSLETPVLPLTQHSSVAVQTGTFQEHYLLSQPGICVRSFDSTLEVIMEVRYGKSPVAVLEPSVGRVVLKDFPNLVATRLELPPECWVLGCGLGVAKDRPEEIQTIQQAITDLKSEGVIQSLTKKWQLSEVAYELEHHHHHH,soluble
23,MLDKNVLNEIGSKVNEILASSPARDVEKNMRAMLTGAFARLDLVTREEFDVQQEVIKRTRIKLAELEEKVRKLEQQLQQPAEVVSSNETGDA,not soluble
24,MSLSQLFIVYLGGSAPKANIELHDVQFVIADNIEGTYEQLRQNWFGTVKDLHLDSYKAVKGADGYQISIQDKPQNSDKKLYFVNLGGYDASKLNELHEFALFVAADNTEAKEKAKQSLLKNSLHQHKDNLMEVDDCLELSKVDGKYIHLTPSDKEYDLKPYWFGYRVIGEGHHHHHH,soluble
